Measurements reported in patent US20220380739.

What was measured:
Abz-VDVADRA-Dap (Dnp) = biological target: T1, Abz-VDVADRA-Dap (Dnp)
T1 chain: VDVADRA

Abz-VDVADTA-Dap (Dnp) = biological target: T2, Abz-VDVADTA-Dap (Dnp)
T2 chain: VDVADTA

Abz-VDVADQA-Dap (Dnp) = biological target: T3, Abz-VDVADQA-Dap (Dnp)
T3 chain: VDVADQA

Abz-VDVADWA-Dap (Dnp) = biological target: T4, Abz-VDVADWA-Dap (Dnp)
T4 chain: VDVADWA

Abz-VDVADGA-Dap (Dnp) = biological target: T5, Abz-VDVADGA-Dap (Dnp)
T5 chain: VDVADGA

Abz-VDVADFA-Dap (Dnp) = biological target: T6, Abz-VDVADFA-Dap (Dnp)
T6 chain: VDVADFA

Abz-VDVADLA-Dap (Dnp) = biological target: T7, Abz-VDVADLA-Dap (Dnp)
T7 chain: VDVADLA

Abz-VDVADSA-Dap (Dnp) = biological target: T8, Abz-VDVADSA-Dap (Dnp)
T8 chain: VDVADSA

Abz-VDVADDA-Dap (Dnp) = biological target: T9, Abz-VDVADDA-Dap (Dnp)
T9 chain: VDVADDA

Abz-VDVADIA-Dap (Dnp) = biological target: T10, Abz-VDVADIA-Dap (Dnp)
T10 chain: VDVADIA

Abz-VDVADKA-Dap (Dnp) = biological target: T11, Abz-VDVADKA-Dap (Dnp)
T11 chain: VDVADKA

Abz-VDVADHA-Dap (Dnp) = biological target: T12, Abz-VDVADHA-Dap (Dnp)
T12 chain: VDVADHA

Abz-VDVADMA-Dap (Dnp) = biological target: T13, Abz-VDVADMA-Dap (Dnp)
T13 chain: VDVADMA

Abz-VDVADNA-Dap (Dnp) = biological target: T14, Abz-VDVADNA-Dap (Dnp)
T14 chain: VDVADNA

Abz-VDVADYA-Dap (Dnp) = biological target: T15, Abz-VDVADYA-Dap (Dnp)
T15 chain: VDVADYA

Abz-VDVADEA-Dap (Dnp) = biological target: T16, Abz-VDVADEA-Dap (Dnp)
T16 chain: VDVADEA

Abz-VDVADPA-Dap (Dnp) = biological target: T17, Abz-VDVADPA-Dap (Dnp)
T17 chain: VDVADPA

Abz-VDVADAA-Dap (Dnp) = biological target: T18, Abz-VDVADAA-Dap (Dnp)
T18 chain: VDVADAA

Abz-VDVADVA-Dap (Dnp) = biological target: T19, Abz-VDVADVA-Dap (Dnp)
T19 chain: VDVADVA

Abz-VDVADCA-Dap (Dnp) = biological target: T20, Abz-VDVADCA-Dap (Dnp)
T20 chain: VDVADCA

Chain of 6H-GSG-VDVAD-TNFalpha (chain, as listed by the source): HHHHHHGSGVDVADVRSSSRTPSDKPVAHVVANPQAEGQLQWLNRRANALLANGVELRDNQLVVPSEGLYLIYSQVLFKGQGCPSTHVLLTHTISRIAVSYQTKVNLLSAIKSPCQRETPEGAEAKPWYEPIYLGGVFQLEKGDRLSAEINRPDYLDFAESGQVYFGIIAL

Protein | KM (Abz-VDVADRA-Dap (Dnp)) [µM] | KM (Abz-VDVADTA-Dap (Dnp)) [µM] | KM (Abz-VDVADQA-Dap (Dnp)) [µM] | KM (Abz-VDVADWA-Dap (Dnp)) [µM] | KM (Abz-VDVADGA-Dap (Dnp)) [µM] | KM (Abz-VDVADFA-Dap (Dnp)) [µM] | KM (Abz-VDVADLA-Dap (Dnp)) [µM] | KM (Abz-VDVADSA-Dap (Dnp)) [µM] | KM (Abz-VDVADDA-Dap (Dnp)) [µM] | KM (Abz-VDVADIA-Dap (Dnp)) [µM] | KM (Abz-VDVADKA-Dap (Dnp)) [µM] | KM (Abz-VDVADHA-Dap (Dnp)) [µM] | KM (Abz-VDVADMA-Dap (Dnp)) [µM] | KM (Abz-VDVADNA-Dap (Dnp)) [µM] | KM (Abz-VDVADYA-Dap (Dnp)) [µM] | KM (Abz-VDVADEA-Dap (Dnp)) [µM] | KM (Abz-VDVADPA-Dap (Dnp)) [µM] | KM (Abz-VDVADAA-Dap (Dnp)) [µM] | KM (Abz-VDVADVA-Dap (Dnp)) [µM] | KM (T7AC-6H-GSG-VDVAD-hFGF-2) [µM] | further results
6H_cpCasp2_S9_E105V (protein) MHHHHHHGKNHAGSPGCEESAAGKEKLPKMRLPTRSDMICGYACLKGTAAMRNTKRGSWYIEALAQVFSERACDMHVADMLVKVNALIKDREGYAPGTEFHRCKVMSEYCSTLCRHLYLFPGHPPTGSGPVCLQVKPCTPEFYQTHFQLAYRLQSRPRGLALVLSNVHFTGEKELEFRSGGDVDHSTLVTLFKLLGYDVHVLCDQTAQEMQEKLQNFAQLPAHRVTDSCIVALLSHGVEGAIYGVDGKLLQLQEVFQLFDNANCPSLQNKPKMFFIQACRGDETDRGVDQQD | 48 | 150 | 130 | 51 | 57 | 77 | 300 | 200 | 200 | 70 | 97 | 160 | 830 | 100 | 340 | 180 | 250 | 110 | 81 |  | 
T7AC_6H_mS9ProE (protein) MLEDPERNKERKEAELQAQTAEQHHHHHHGKNHAGSPGCEESAAGKEKLPKMRLPTRSDMICGYACLKGTAAMRNTKRGSWYIEALAQVFSERACDMHVADMLVKVNALIKDREGYAPGTEFHRCKVMSEYCSTLCRHLYLFPGHPPTGSGPVCLQVKPCTPEFYQTHFQLAYRLQSRPRGLALVLSNVHFTDEKELEFRSGGDVDHSTLVTLFKLLGYDVHVLCDQTAQEMQEKLQNFAQLPAHRGTDSCIVALLSHGVEGAIYGVDGKLLQLQEVFQLFDNANCPSLQNKPKMFFIQACRGEETERGVDQQD | 68 | 100 | 120 | 56 | 43 | 80 | 410 | 120 | 150 | 130 | 92 | 160 | 370 | 120 | 420 | 110 | 120 | 110 | 90 | 298 | KM (6H-GSG-VDVAD-TNFalpha): 520 µM
cp caspase-2 (6H_cpCasp2D) (protein) MHHHHHHGKNHAGSPGCEESAAGKEKLPKMRLPTRSDMICGYACLKGTAAMRNTKRGSWYIEALAQVFSERACDMHVADMLVKVNALIKDREGYAPGTEFHRCKEMSEYCSTLCRHLYLFPGHPPTGSGPVCLQVKPCTPEFYQTHFQLAYRLQSRPRGLALVLSNVHFTGEKELEFRSGGDVDHSTLVTLFKLLGYDVHVLCDQTAQEMQEKLQNFAQLPAHRVTDSCIVALLSHGVEGAIYGVDGKLLQLQEVFQLFDNANCPSLQNKPKMFFIQACRGDETDRGVDQQD | 58 | 75 | 120 | 46 | 110 | 60 | 290 | 200 | 160 | 71 | 120 | 120 | 380 | 78 | 340 | 170 | 300 | 89 | 64 | 639 | cleavage of DEVD-E2 compared with VDVAD-E2 (DEVD-E2): processed 140 times slower than VDVAD-E2; KM (Abz-VDVADCA-Dap (Dnp)): 38 µM
T7AC_6H_cpCasp2D (protein) MLEDPERNKERKEAELQAQTAEQHHHHHHGKNHAGSPGCEESAAGKEKLPKMRLPTRSDMICGYACLKGTAAMRNTKRGSWYIEALAQVFSERACDMHVADMLVKVNALIKDREGYAPGTEFHRCKEMSEYCSTLCRHLYLFPGHPPTGSGPVCLQVKPCTPEFYQTHFQLAYRLQSRPRGLALVLSNVHFTGEKELEFRSGGDVDHSTLVTLFKLLGYDVHVLCDQTAQEMQEKLQNFAQLPAHRVTDSCIVALLSHGVEGAIYGVDGKLLQLQEVFQLFDNANCPSLQNKPKMFFIQACRGDETDRGVDQQD | 56 | 89 |  | 36 |  |  | 160 | 130 | 180 | 62 | 110 | 110 | 340 | 87 | 300 | 200 | 150 | 120 |  | 881 | KM (6H-GSG-VDVAD-TNFalpha): 280 µM
T7AC-6H-cpCasp2_sar (protein) MLEDPERNKERKEAELQAQTAEQHHHHHHGKEHMASPGCEQSAAGKEKILKMRLPTRSDMICGYACLKGTAAMRNTKRGSWYIEALTQVFSERARDMHVADMLVKVNALIKDREGYAPGTEFHRCKEMSEYSSTLCRHLYLFPGHPPTGSGPPSLQVKPCTSEFYRTHHHLAYRLQSRPRGLALVLSNVHFNGEKDLEFRSGGDVDHSSLVTLFKLLDYDVHVLRDQTAQEMYEKLQRFAQLSTHQNTDSCVVALLSHGIEGGIYGVDGQLLQLQEVFQLFDNANCPNLQNKPKMFFIQACRGDETDRGVDLRD |  |  | 94 |  | 48 | 44 |  |  |  |  |  |  |  |  |  |  |  |  | 34 |  | 
T7AC-6H-cpCasp2_sar_E105V, E172V (protein) MLEDPERNKERKEAELQAQTAEQHHHHHHGKEHMASPGCEQSAAGKEKILKMRLPTRSDMICGYACLKGTAAMRNTKRGSWYIEALTQVFSERARDMHVADMLVKVNALIKDREGYAPGTEFHRCKVMSEYSSTLCRHLYLFPGHPPTGSGPPSLQVKPCTSEFYRTHHHLAYRLQSRPRGLALVLSNVHFNGVKDLEFRSGGDVDHSSLVTLFKLLDYDVHVLRDQTAQEMYEKLQRFAQLSTHQNTDSCVVALLSHGIEGGIYGVDGQLLQLQEVFQLFDNANCPNLQNKPKMFFIQACRGDETDRGVDLRD |  |  | 120 |  | 31 | 52 |  |  |  |  |  |  |  |  |  |  |  |  | 69 |  | 
Caspase-2 (human), recombinant, active, Enzo Life Sciences (protein) GPVCLQVKPCTPEFYQTHFQLAYRLQSRPRGLALVLSNVHFTGEKELEFRSGGDVDHSTLVTLFKLLGYDVHVLCDQTAQEMQEKLQNFAQLPAHRVTDSCIVALLSHGVEGAIYGVDGKLLQLQEVFQLFDNANCPSLQNKPKMFFIQACRGDETDRGVDQQDGKNHAGSPGCEESDAGKEKLPKMRLPTRSDMICGYACLKGTAAMRNTKRGSWYIEALAQVFSERACDMHVADMLVKVNALIKDREGYAPGTEFHRCKEMSEYCSTLCRHLYLFPGHPPT |  |  |  |  |  |  |  |  |  |  |  |  |  |  |  |  |  |  |  |  | cleavage of DEVD-E2 compared with VDVAD-E2 (DEVD-E2): cleaved DEVD-E2 only 44 times slower than VDVAD-E2
wt caspase-2 (human, produced in E. coli with poly-his-tag) (protein) GPVCLQVKPCTPEFYQTHFQLAYRLQSRPRGLALVLSNVHFTGEKELEFRSGGDVDHSTLVTLFKLLGYDVHVLCDQTAQEMQEKLQNFAQLPAHRVTDSCIVALLSHGVEGAIYGVDGKLLQLQEVFQLFDNANCPSLQNKPKMFFIQACRGDETDRGVDQQDGKNHAGSPGCEESDAGKEKLPKMRLPTRSDMICGYACLKGTAAMRNTKRGSWYIEALAQVFSERACDMHVADMLVKVNALIKDREGYAPGTEFHRCKEMSEYCSTLCRHLYLFPGHPPTHHHHHH |  |  | 110 |  | 97 | 79 |  |  |  |  |  |  |  |  |  |  |  |  | 86 |  | 
6H_cpCasp2_G171D (protein) MHHHHHHGKNHAGSPGCEESAAGKEKLPKMRLPTRSDMICGYACLKGTAAMRNTKRGSWYIEALAQVFSERACDMHVADMLVKVNALIKDREGYAPGTEFHRCKEMSEYCSTLCRHLYLFPGHPPTGSGPVCLQVKPCTPEFYQTHFQLAYRLQSRPRGLALVLSNVHFTDEKELEFRSGGDVDHSTLVTLFKLLGYDVHVLCDQTAQEMQEKLQNFAQLPAHRVTDSCIVALLSHGVEGAIYGVDGKLLQLQEVFQLFDNANCPSLQNKPKMFFIQACRGDETDRGVDQQD | 65 | 140 | 160 | 56 | 75 | 86 | 300 | 220 | 150 | 78 | 94 | 170 | 610 | 110 | 350 | 210 | 390 | 120 | 96 |  | 
